In patent publication US20180118800:

B1: U1p1 protease (protein)
chain: LVPELNEKDDDQVQKALASRENTQLMNRDNIEITVRDFKTLAPRRWLNDTIIEFFMKYIEKSTPNTVAFNSFFYTNLSERGYQGVRRWMKRKKTQIDKLDKIFTPINLNQSHWALGIIDLKKKTIGYVDSLSNGPNAMSFAILTDLQKYVMEESKHTIGEDFDLIHLDCPQQPNGYDCGIYVCMNTLYGSADAPLDFDYKDAIRMRRFIAHLILTDALK

Experiments:
[1] = system: His6-Smt3-LTPR-GLP-2 analog fusion protein
[2] = system: T1, ITDPLVPRHGDGS (SEQ ID NO: 8)
T1 sequence: ITDPLVPRHGDGS

[3] = system: T2, PLTPRHGDGSF (SEQ ID NO: 6)
T2 sequence: PLTPRHGDGSF

[4] = system: T3, PVSGPRHGDGSF (SEQ ID NO: 7)
T3 sequence: PVSGPRHGDGSF

[5] = molecular target: T4, His6-Smt3-GLP-2 analog fusion protein
T4 chain: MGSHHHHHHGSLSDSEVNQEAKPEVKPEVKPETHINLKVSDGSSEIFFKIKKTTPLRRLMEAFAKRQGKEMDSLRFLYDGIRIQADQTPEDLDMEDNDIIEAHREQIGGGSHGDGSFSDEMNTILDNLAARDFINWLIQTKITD

Row | Molecule | thrombin cleavage of fusion protein, RP-HPLC (C18) [1] | thrombin cleavage of fusion protein, SDS-PAGE [1] | thrombin cleavage of synthetic peptide, RP-HPLC (C18) [2] | thrombin cleavage of synthetic peptide, RP-HPLC (C18) [3] | thrombin cleavage of synthetic peptide, RP-HPLC (C18) [4] | U1p1 protease cleavage of fusion protein, SDS-PAGE [5]
1 | thrombin | produced a complete cleaved product without partially cleaved segments after thrombin cleavage | thrombin had only one cleavage site on the His6-Smt3-Linker-GLP-2 analog fusion protein | Each of the three peptides was cleaved with thrombin | PLTPRHGDGSF was cleaved the most thoroughly | Each of the three peptides was cleaved with thrombin | 
2 | B1 |  |  |  |  |  | U1p1 protease had only one cleavage cite on the His6-Smt3-GLP-2 analog fusion protein but cleaved far less efficiently than thrombin cleaving a His6-Smt3-Linker-GLP-2 analog fusion protein
